Publication PMC11659472 (Communications Biology, 2024)

Molecular target: the molecule itself
Test: cryo-EM structure

B1: Roseospirillum parvum LH1 αβ-polypeptide pair (complex)
chain 1: not shown
chain 2: MATTENVTSSTGLTEAEAKEFHAVYSQSAAGFLAVCAVAHVLAWMWRPFWPGAEGWVMDTAQNLTFLA
For B1, the “stoichiometry N” value was 16.
